Source: patent US20250333441A1, “POLYPEPTIDE INHIBITORS AND USES THEREOF” (Neuracle Science Co., Ltd., priority 2021, published 2025)

Columns and labels:
[1] = system: mouse primary cortical neurons; assay: Neurite growth of primary cortical neurons (beta-tubulin III immunostaining); type: cell-based; settings: FB peptides; treated for two days, assessed at day 3
Procedure: Next, primary cortical neurons (day 1 postnatal) were cultured in vitro with varying concentrations (0.006 to 60 nM) of the LRRC4B (453-576) protein fragment (i.e., amino acid residues 453-576 of SEQ ID NO: 2; SEQ ID NO: 7), and then at day 3 post-initial culture, the effect on neurite growth was assessed by immunostaining the cells with anti-beta-tubulin III antibody. Cells cultured with DMSO (“Veh”) were used as control.
Mouse hippocampal neurons were treated with LRRC4B peptides at 1 and 2 DIV to determine neurite growth. It was measured by using 3 different parameters, which are total neurites length, number of primary and secondary neurites. After the neurons were stained with beta-tubulin III at 3 DIV, neurites length and branch points were measured using Fiji (Image J, NIH, Bethesda). Individual neurons were selected by hand and these parameters were counted using the Simple neurite tracer plugin. Mouse spinal motor neurons sampled at postnatal day 1 were treated with 10 nM of NS101 and LRRC4B-peptides (dFB-dWY-JM31 and dFB-DY-JM31) at 1 and 2 DIV and immunostained with Tau-5 antibody at 3 DIV. Total neurite length and number of somas in images were measured by Neurphology Image J plugin.

FAM19A5 protein = FAM19A5 protein (Homo sapiens, UniProt Q7Z5A7); assay: ELISA binding of recombinant FAM19A5 to coated LRRC4 family ectodomains, fragments and FB peptides; settings: coated protein or peptide, FAM19A5 up to 10 nM
Procedure: Next, to confirm the above co-immunoprecipitation results, an ELISA assay was used to measure the binding of the FAM19A5 protein to either the full-length ectodomain of members of LRRC4 protein family or various LRRC4B ectodomain protein fragments. Specifically, an ELISA plate was coated with one of the following LRRC4B ectodomain protein, which was conjugated to human Fc (100 nM/well): (1) full-length ectodomain of LRRC4 protein (amino acid residues 39-527 of SEQ ID NO: 1) (SEQ ID NO: 4); (2) full-length ectodomain of LRRC4B protein (amino acids 36-576 of SEQ ID NO: 2; i.e., construct #7 in Table 6) (SEQ ID NO: 5); (3) full-length ectodomain of LRRC4C protein (amino acids 45-527 of SEQ ID NO: 3) (SEQ ID NO: 6); (4) LRRC4B ectodomain fragment (amino acids 453-576 of SEQ ID NO: 2; i.e., construct #11 in Table 6) (SEQ ID NO: 7); (5) LRRC4B ectodomain fragment (amino acids 484-576 of SEQ ID NO: 2; i.e., construct #12 in Table 6) (SEQ ID NO: 8); (6) LRRC4B ectodomain fragment (amino acids 482-576 of SEQ ID NO: 2) (SEQ ID NO: 9); (7) LRRC4B ectodomain fragment (amino acids 482-497 of SEQ ID NO: 2) (SEQ ID NO: 10); and (8) LRRC4B ectodomain fragment (amino acids 498-576 of SEQ ID NO: 2; i.e., construct #13 in Table 6) (SEQ ID NO: 11). Then, recombinant FAM19A5 proteins (0.005, 0.01, 0.025, 0.05, 0.1, 0.25, 0.5, 1, 2.5, 5, and 10 nM) were added to the relevant wells, and the plates were incubated at 37° C. for 1 hour. Afterwards, the amount of LRRC4B-bound FAM19A5 protein was detected using […] anti-FAM19A5 (1-65) antibody.
As further confirmation, three synthetic polypeptides comprising amino acids 484-497 of SEQ ID NO: 2 (i.e., YTYFTTVTVETLET; SEQ ID NO: 65) were constructed: (1) FB-16 (GYTYFTTVTVETLETQ; SEQ ID NO: 17), (2) FB-20 ([…]; SEQ ID NO: 18), and (3) FB-28 ([…]; SEQ ID NO: 19). The peptides differed in their total length. The ability of these polypeptides to bind to recombinant FAM19A5 protein was assessed using an ELISA assay as described above.

[2] = target: binding of FAM19A5 protein to full-length ectodomain of the LRRC4B protein (amino acids 36-576)-hFc (Homo sapiens, UniProt Q7Z5A7); assay: Competitive inhibition assay, plate coated with full-length LRRC4B ectodomain; settings: 100 nM coated ectodomain; FAM19A5 5 ng/mL; increasing concentrations
Procedure: Next, to further assess the role that the binding domain of the LRRC4B protein has on the interaction between FAM19A5 protein and members of the LRRC4 protein family, a competitive inhibition assay was used to determine whether different LRRC4B deletion constructs from Example 2 could inhibit the binding of FAM19A5 to the full-length ectodomain of the LRRC4B protein (i.e., amino acids 36-576 of SEQ ID NO: 2; SEQ ID NO: 5). Briefly, 100 nM of the full-length ectodomain of the LRRC4B protein was used to coat a plate, and then recombinant FAM19A5 protein (5 ng/mL) was added to the plate in combination with the following LRRC4B deletion constructs (increasing concentrations): (1) LRRC4B (453-576) (i.e., construct #11 in Table 6); (2) LRRC4B (453-576) mutant (comprises alanine substitutions at positions 488 and 489 of SEQ ID NO: 2; SEQ ID NO: 16); (3) LRRC4B (484-576) (i.e., construct #12 in Table 6); (4) LRRC4B (482-576); (5) LRRC4B (482-497); and (6) LRRC4B (498-576). The plates were incubated at 37° C., and then, the amount of FAM19A5 bound to the coated LRRC4B ectodomain protein was measured using H1RP-conjugated anti-FAM19A5 (1-65) antibody. […]

binding of FAM19A5 protein to full-length ectodomain of the LRRC4B protein (amino acids 36-576)-hFc, sequence (Q7Z5A7 44-132): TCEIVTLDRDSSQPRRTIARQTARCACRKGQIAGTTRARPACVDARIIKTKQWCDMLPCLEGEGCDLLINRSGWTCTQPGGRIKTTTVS
FAM19A5 protein, sequence (Q7Z5A7 44-132): as above

## GYTYFTTVTVETLETQPGEKEPPGPTTD [FB-28]
[1]
  neurite outgrowth: Increased neurite outgrowth
FAM19A5 protein
  binding to FAM19A5 protein (ELISA): high affinity

## LRRC4B (482-497): LRRC4B ectodomain fragment, amino acids 482-497 of SEQ ID NO: 2 (SEQ ID NO: 10) (GGYTYFTTVTVETLET; left off: a dimerising Fc or GST)
[2]
  inhibition of FAM19A5 binding to coated full-length LRRC4B ectodomain protein: able to inhibit the interaction

## GYTYFTTVTVETLETQ [FB-16]
[1]
  neurite outgrowth: Increased neurite outgrowth
FAM19A5 protein
  binding to FAM19A5 protein (ELISA): high affinity

B1: LRRC4B (482-576): LRRC4B ectodomain fragment, amino acids 482-576 of SEQ ID NO: 2 (SEQ ID NO: 9) (protein)
chain: GGYTYFTTVTVETLETQPGEEALQPRGTEKEPPGPTTDGVWGGGRPGDAAGPASSSTTAPAPRSSRPTEKAFTVPITDVTENALKDLDDVMKTTK
[2]
  inhibition of FAM19A5 binding to coated full-length LRRC4B ectodomain protein: able to inhibit the interaction

B2: LRRC4B (498-576): LRRC4B fragment, amino acids 498-576 of SEQ ID NO: 2 (SEQ ID NO: 11) (protein)
chain: QPGEEALQPRGTEKEPPGPTTDGVWGGGRPGDAAGPASSSTTAPAPRSSRPTEKAFTVPITDVTENALKDLDDVMKTTK
[2]
  inhibition of FAM19A5 binding to coated full-length LRRC4B ectodomain protein: much inferior in their ability to inhibit the interaction
FAM19A5 protein
  binding to FAM19A5 protein (ELISA): failed to bind to FAM19A5
